Drawing on article PMC11228049, this text covers Kd and stoichiometry N for 2 substances.

Experiment [1] deals with βarr2 in excess V2Rpp (UniProt P29067). The experiment can be described thus: ITC; βarr form in the sample cell, WT Gβγ in the syringe; 25 °C; 20 mM HEPES, 150 mM NaCl, 0.02% DDM, pH 7.4; one-site model.
Experiment [2] has as its target untagged βarr2 (UniProt P29067). The description is as above.
The target is the same in experiment [3]. The experiment can be described thus: ITC; βarr1 (15 μM) or βarr2 (20 μM) in the sample cell, 400 μM Gβγ C68S in the syringe; 25 °C; 20 mM HEPES, 150 mM NaCl, 0.02% DDM, pH 7.4; an additional early binding site was excluded, the rest fitted to a one-site model.

Sequence of UniProt P29067 (P29067 whole entry): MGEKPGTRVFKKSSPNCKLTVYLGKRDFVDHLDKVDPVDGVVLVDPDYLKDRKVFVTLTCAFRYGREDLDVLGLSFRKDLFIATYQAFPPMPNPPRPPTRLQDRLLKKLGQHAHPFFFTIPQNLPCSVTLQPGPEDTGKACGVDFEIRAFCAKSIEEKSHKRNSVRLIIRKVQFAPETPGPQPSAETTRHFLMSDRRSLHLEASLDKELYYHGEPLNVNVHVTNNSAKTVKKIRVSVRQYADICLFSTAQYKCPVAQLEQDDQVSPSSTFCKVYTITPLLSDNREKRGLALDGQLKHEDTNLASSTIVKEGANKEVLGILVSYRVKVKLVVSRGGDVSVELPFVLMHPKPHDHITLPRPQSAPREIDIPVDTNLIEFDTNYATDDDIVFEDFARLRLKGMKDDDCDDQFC

Broadly, the Kd is the free concentration of one partner at which half of the binding sites on the other are occupied at equilibrium, for simple one-to-one binding. The term stoichiometry N denotes the number of molecules, sites or subunits per partner or assembly. In experiment [1], “recombinant purified WT Gβ1γ2 (from UniProt P62873 1-340; P59768 1-71) (complex)” returned a Kd of 1.8 µM and a stoichiometry N of 1 site. In experiment [2], this substance had a dissociation constant (Kd) of 1.5 µM and a stoichiometry N of 1 site.

In experiment [3], “Gβ1γ2 with a C68S mutation in Gγ2 (from UniProt P62873 1-340; P59768 1-71) (complex)” gave a dissociation constant Kd of 0.9 µM.
